Like-named read-outs stand apart in the source and are kept apart here.
B1: His-tagged CoVHH-N1 (VHH)
VHH: EVQLVESGGAVVQPGGSLRLSCEASGFPFTKFWMYWVRRAPGKGLEWVAFIDTTGTITNYASSVKGRFTISRDDARNMVYLQMNDLRPEDTAIYYCATGPPGSTWVVDFHSWGQGTQVTVSS
notes: also called CoVHH-N1 (His-tagged)
B2: His-tagged CoVHH-N2 (VHH)
VHH: EVQLVESGGGSVQAGGSLTLSCAASGFTFDDHAVGWFRQAPGKGLEWVSAISGDGYTTVYADSVKGRFTISRDNAKKTVYLQMNSLKAEDTAVYYCNAFRTDIVREYWGQGTQVTVSS
notes: also called CoVHH-N2 (His-tagged)

Columns and labels:
[1] = target: T1, SARS-CoV-2 Nucleocapsid-Fc fusion protein (SARS-CoV-2, UniProt P0DTC9 1-419); assay: CoVHH-N1
T1 construct: also called Fc-tagged N-protein

[2] = target: T1, SARS-CoV-2 Nucleocapsid-Fc fusion …
[3] = target: T1, SARS-CoV-2 Nucleocapsid-Fc fusion …; assay: CoVHH-N2

Binder | koff [1] [s⁻¹] | kon [1] [M⁻¹ s⁻¹] | Kd [2] [nM] | Kd [3] [nM] | koff [3] [s⁻¹] | kon [3] [M⁻¹ s⁻¹]
B1 | 0.0017 | 3.02e+06 | 0.564 | – | – | –
B2 | – | – | – | 2.09 | 0.0009 | 430000
